Assay in all cases: mass photometry
Assay [1] concerns the target BtHamA (not stated (prefix Bt)).
The target in assay [2] is EcHna (E. coli (from the prefix Ec)).
The next assay deals with EcPD-T4-1 (E. coli).
For another assay, the target named is EcPD-T4-8 (E. coli).
The target of assay [3] is PaAbpA (not stated (prefix Pa)).
In assay [4] the target is PfOloA (not stated (prefix Pf)).

In the case of BtHamB (natural protein), in assay [1], the stoichiometry N (HamA:HamB (1:1)) amounted to 1. EcHna (natural protein) had a stoichiometry N in assay [2] of 2. Regarding EcPD-T4-1 (natural protein), in the assay with EcPD-T4-1 (E. coli), the stoichiometry N turned out to be 2. Turning to EcPD-T4-8 (natural protein), the stoichiometry N with EcPD-T4-8 (E. coli) stood at 4. In assay [3], PaAbpB (natural protein) showed a stoichiometry N (AbpA:AbpB (1:1)) of 1. As for PfOloB (natural protein), the stoichiometry N (OloA:OloB (2:2)) in assay [4] came to 1.

A word on the stoichiometry N: it is a count of units in the complex or per binding partner.

The record behind these values is doi:10.1101/2025.07.10.664194.
